According to paper doi:10.1101/2020.06.06.138305:

Target: His-tagged encapsulin from Thermotoga maritima (Thermotoga maritima)
Assay: co-purification

ESig-tagged mini-Singlet Oxygen Generator (miniSOG)
stoichiometry N (mSOG molecules per nanocompartment): 7
